Test results taken from the supplement of paper PMC10065799, “High-throughput profiling of sequence recognition by tyrosine kinases and SH2 domains using bacterial peptide display” (eLife, 2023).

Key:
Grb2 SH2 = Grb2 SH2 (UniProt P62993); assay: SH2 binding enrichment of the phosphorylated peptide, bacterial display (enrichment ratio); higher = better substrate or ligand; peptides without Tyr show the background
c-Src SH2 = assay: as above
SHP2-C SH2 = assay: as above
AncSZ = assay: phosphorylation enrichment, bacterial display (enrichment ratio); higher = better substrate or ligand; peptides without Tyr show the background
Fer (mouse) = assay: as above
c-Src = assay: as above
Fes = Fes (UniProt P07332); assay: as above
MERTK = MERTK (UniProt Q12866); assay: as above
FGFR3 = FGFR3 (UniProt P22607); assay: as above
FGFR3, sequence (P22607 whole entry, looked up): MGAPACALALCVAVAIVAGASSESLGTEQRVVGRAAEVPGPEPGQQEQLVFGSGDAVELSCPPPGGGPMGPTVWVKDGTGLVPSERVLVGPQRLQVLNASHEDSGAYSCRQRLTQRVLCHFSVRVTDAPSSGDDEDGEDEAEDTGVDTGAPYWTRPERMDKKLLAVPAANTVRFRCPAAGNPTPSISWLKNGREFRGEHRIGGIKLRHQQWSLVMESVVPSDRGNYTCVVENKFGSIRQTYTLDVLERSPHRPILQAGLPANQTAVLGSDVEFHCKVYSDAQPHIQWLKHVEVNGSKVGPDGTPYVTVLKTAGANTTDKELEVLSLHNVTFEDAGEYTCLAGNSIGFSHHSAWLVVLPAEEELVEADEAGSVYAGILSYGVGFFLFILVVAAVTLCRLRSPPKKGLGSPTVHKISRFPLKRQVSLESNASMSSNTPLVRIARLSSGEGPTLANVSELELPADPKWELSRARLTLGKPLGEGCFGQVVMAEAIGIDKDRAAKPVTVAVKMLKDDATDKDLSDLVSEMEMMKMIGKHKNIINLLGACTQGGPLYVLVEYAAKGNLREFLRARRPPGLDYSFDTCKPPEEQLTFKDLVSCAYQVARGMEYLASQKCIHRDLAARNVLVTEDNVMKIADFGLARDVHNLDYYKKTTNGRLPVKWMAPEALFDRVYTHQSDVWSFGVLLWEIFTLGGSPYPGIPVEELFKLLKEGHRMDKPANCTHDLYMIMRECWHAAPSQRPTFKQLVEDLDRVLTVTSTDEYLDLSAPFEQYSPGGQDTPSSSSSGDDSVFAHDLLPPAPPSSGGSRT

EPHB2 = EPHB2 (UniProt P29323); assay: as above
EPHB2, sequence (P29323 whole entry, looked up): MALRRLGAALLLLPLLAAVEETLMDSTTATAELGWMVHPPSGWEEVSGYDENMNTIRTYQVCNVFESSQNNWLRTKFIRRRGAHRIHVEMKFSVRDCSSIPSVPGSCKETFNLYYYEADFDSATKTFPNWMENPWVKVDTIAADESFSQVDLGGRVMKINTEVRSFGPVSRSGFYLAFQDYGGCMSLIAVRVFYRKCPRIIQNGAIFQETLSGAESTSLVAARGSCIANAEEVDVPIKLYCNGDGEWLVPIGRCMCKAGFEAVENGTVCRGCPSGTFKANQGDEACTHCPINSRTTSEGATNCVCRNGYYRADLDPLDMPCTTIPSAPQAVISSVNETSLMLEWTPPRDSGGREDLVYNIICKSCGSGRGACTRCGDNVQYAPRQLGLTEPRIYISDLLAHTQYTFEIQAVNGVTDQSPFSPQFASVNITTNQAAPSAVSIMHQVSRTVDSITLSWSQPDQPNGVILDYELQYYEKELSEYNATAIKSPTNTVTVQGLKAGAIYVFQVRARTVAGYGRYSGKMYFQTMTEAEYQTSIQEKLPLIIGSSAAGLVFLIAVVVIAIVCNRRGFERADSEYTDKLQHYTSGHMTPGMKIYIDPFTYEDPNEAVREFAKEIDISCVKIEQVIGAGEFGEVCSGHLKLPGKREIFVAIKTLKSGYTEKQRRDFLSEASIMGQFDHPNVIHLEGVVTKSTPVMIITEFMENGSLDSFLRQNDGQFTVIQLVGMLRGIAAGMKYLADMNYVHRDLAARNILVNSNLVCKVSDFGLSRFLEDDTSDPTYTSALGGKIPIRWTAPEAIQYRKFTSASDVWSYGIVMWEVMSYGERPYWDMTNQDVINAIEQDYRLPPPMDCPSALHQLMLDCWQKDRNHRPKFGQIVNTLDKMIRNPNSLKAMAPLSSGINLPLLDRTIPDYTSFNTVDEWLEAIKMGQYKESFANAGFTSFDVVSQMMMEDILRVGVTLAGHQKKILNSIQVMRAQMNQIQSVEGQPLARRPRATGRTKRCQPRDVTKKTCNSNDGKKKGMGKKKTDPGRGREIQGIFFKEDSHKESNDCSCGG

Jak2 = Jak2 (UniProt O60674); assay: as above
Jak2, sequence (O60674 whole entry, looked up): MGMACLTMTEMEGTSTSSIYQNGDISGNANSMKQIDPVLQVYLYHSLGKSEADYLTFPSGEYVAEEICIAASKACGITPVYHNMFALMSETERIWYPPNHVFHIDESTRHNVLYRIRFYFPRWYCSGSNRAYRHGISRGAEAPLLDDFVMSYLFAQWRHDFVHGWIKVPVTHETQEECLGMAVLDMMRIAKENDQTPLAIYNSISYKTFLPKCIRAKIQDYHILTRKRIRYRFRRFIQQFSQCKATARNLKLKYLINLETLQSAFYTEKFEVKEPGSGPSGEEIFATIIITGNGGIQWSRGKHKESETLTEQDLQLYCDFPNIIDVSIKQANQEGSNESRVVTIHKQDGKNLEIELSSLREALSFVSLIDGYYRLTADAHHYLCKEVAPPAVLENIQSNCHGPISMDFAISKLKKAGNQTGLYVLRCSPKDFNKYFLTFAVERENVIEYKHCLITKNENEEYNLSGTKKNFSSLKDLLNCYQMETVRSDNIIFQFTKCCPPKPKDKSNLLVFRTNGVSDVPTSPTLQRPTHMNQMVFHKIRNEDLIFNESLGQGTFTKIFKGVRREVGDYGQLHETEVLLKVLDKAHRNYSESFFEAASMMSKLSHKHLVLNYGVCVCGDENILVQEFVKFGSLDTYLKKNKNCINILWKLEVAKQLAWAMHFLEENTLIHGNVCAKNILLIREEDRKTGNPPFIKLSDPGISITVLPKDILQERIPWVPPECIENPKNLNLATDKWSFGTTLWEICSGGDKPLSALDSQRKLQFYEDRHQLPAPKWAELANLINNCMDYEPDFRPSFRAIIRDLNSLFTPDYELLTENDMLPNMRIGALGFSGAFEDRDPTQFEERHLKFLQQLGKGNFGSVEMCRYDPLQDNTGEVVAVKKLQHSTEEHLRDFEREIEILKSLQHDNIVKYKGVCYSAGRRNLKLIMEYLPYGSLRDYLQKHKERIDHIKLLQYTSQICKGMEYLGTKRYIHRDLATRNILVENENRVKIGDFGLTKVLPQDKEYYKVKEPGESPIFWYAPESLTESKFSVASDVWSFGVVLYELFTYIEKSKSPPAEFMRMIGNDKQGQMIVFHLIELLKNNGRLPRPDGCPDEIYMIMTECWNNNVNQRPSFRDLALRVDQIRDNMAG

Hck = Hck (UniProt P08631); assay: as above
Hck, sequence (P08631 whole entry, looked up): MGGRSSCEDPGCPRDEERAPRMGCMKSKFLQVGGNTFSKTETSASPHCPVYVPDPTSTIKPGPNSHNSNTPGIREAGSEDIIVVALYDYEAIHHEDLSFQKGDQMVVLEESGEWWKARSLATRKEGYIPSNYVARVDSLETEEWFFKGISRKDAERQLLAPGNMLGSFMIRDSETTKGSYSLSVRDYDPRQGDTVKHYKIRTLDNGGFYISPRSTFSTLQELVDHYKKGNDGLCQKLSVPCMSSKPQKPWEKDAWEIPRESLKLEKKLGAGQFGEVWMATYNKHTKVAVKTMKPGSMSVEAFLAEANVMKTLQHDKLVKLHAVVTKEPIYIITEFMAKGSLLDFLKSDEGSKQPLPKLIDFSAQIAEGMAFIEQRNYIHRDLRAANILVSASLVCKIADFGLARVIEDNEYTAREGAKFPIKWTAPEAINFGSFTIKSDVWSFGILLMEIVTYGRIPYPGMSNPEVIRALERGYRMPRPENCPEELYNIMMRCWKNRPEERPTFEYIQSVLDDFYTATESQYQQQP

EPHB1 = EPHB1 (UniProt P54762); assay: as above
EPHB1, sequence (P54762 whole entry, looked up): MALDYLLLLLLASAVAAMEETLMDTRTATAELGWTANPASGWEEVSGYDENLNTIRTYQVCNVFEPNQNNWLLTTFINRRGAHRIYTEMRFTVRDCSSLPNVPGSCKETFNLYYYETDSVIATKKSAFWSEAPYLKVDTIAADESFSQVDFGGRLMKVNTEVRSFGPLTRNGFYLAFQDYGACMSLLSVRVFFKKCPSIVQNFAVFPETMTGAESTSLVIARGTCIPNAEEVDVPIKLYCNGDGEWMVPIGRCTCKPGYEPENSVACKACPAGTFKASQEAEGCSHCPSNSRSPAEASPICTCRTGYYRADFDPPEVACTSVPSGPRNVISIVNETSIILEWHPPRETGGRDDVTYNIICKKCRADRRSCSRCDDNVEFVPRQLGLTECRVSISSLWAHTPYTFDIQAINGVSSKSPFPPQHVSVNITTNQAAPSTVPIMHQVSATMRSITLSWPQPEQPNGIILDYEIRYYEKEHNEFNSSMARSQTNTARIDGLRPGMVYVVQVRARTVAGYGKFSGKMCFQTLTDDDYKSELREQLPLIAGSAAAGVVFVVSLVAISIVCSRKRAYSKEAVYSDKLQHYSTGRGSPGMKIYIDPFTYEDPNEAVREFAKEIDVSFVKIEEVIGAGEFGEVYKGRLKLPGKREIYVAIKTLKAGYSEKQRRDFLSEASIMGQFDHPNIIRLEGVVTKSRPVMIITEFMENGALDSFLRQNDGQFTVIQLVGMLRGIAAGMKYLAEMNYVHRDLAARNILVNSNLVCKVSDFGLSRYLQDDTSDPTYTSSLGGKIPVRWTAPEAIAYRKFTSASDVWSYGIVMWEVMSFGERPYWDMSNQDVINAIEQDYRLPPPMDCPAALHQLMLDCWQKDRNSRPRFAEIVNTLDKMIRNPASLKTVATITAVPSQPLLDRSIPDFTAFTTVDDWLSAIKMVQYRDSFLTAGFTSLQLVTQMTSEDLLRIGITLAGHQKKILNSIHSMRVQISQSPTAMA

FGFR1 = FGFR1 (UniProt P11362); assay: as above
c-Abl (mouse) = assay: as above
Fyn = Fyn (UniProt P06241); assay: as above
Fyn, sequence (P06241 whole entry, looked up, the tested form may be a part): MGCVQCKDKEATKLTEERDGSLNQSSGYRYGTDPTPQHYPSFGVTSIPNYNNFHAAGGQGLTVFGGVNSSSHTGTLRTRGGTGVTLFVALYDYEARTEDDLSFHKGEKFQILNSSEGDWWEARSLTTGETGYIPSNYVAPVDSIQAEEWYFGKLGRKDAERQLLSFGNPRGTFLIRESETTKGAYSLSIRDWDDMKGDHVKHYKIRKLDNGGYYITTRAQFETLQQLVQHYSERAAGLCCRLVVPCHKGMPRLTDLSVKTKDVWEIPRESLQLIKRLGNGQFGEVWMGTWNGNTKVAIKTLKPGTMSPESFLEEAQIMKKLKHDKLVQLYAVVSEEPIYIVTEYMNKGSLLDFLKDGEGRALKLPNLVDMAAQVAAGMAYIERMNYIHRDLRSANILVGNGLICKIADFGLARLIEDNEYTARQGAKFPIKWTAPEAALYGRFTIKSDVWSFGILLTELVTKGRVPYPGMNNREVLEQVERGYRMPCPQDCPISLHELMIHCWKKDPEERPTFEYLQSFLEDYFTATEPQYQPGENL
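For SH2 binding enrichment of the phosphorylated peptide, bacterial display in this document: peptide library displayed on the E. coli surface as eCPX fusions, selected cells deep-sequenced, score is each peptide's frequency after selection divided by its frequency in the input.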
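For phosphorylation enrichment, bacterial display in this document: 11-residue human phosphosite peptides and single-mutation variants displayed on the E. coli surface, counted by deep sequencing, each peptide's frequency after selection divided by its frequency in the unselected input library; frequency after pTyr selection over input frequency; kinase dosed for 20-30% of maximal phosphorylation in three min.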

Row | Sequence | SH2 binding enrichment (Grb2 SH2) | SH2 binding enrichment (c-Src SH2) | SH2 binding enrichment (SHP2-C SH2) | phosphorylation enrichment (AncSZ) | phosphorylation enrichment (Fer (mouse)) | phosphorylation enrichment (c-Src) | phosphorylation enrichment (Fes) | phosphorylation enrichment (MERTK) | phosphorylation enrichment (FGFR3) | phosphorylation enrichment (EPHB2) | phosphorylation enrichment (Jak2) | phosphorylation enrichment (Hck) | phosphorylation enrichment (EPHB1) | phosphorylation enrichment (FGFR1) | phosphorylation enrichment (c-Abl (mouse)) | phosphorylation enrichment (Fyn)
1 | DDEVFYSPLSL [OTC_Y317_R320L] | 0.777 | 0.38 | 0.588 | 2 | 11.1 | 5.55 | 1.2 | 5.35 | 2.76 | 0.598 | 1.28 | 7.22 | 0.495 | 3.14 | 2.96 | 5.08
2 | DDPRRYQKFGF [OAS1_Y362_YF] | 1.15 | 0.467 | 0.909 | 0.593 | 0.414 | 0.321 | 0.667 | 0.475 | 0.528 | 0.425 | 0.674 | 0.398 | 0.376 | 0.438 | 0.418 | 0.502
3 | DEEDTYTMPST [PTK2_Y407] | 0.869 | 0.469 | 0.563 | 3.8 | 0.691 | 2.94 | 1.29 | 0.657 | 0.776 | 0.627 | 1.25 | 1.83 | 0.528 | 0.568 | 1.12 | 3.77
4 | DELDKYSEALK [TPM1_Y60] | 0.889 | 0.655 | 0.554 | 1.19 | 0.472 | 0.422 | 1.03 | 0.395 | 0.59 | 0.577 | 0.977 | 0.489 | 0.469 | 0.451 | 0.676 | 0.443
5 | DEQKKYFNAMK [SCN5A_Y1494_E1489D_YF] | 0.856 | 0.554 | 1.03 | 0.68 | 0.437 | 0.548 | 0.883 | 0.448 | 0.474 | 0.428 | 0.952 | 0.419 | 0.374 | 0.592 | 0.815 | 0.394
6 | DEYLEHRRIVG [FAM221A_Y20_Y20H] | 0.918 | 0.484 | 0.611 | 0.764 | 0.506 | 0.347 | 0.883 | 0.38 | 0.611 | 0.679 | 0.526 | 0.489 | 1.95 | 0.6 | 0.434 | 0.399
7 | DFNPNYCFAGK [ALK_Y1096_YF] | 0.792 | 0.533 | 0.625 | 1.67 | 0.742 | 0.684 | 1.28 | 1.04 | 0.887 | 0.989 | 1.21 | 0.444 | 1.72 | 0.742 | 0.921 | 0.549
8 | DFPGNYSGYDD [POLR1C_Y33] | 0.853 | 2.03 | 0.582 | 1.3 | 0.65 | 0.612 | 1.24 | 0.62 | 0.913 | 1.3 | 1.17 | 0.573 | 1.31 | 0.671 | 0.976 | 0.675
9 | DFTEAYNPKIK [CLK1_Y305_YF] | 0.947 | 0.533 | 1.11 | 0.874 | 0.466 | 0.571 | 1.11 | 0.501 | 0.649 | 0.572 | 0.988 | 0.505 | 0.509 | 0.464 | 0.893 | 0.453
10 | DGPVNYEEFVQ [CALM2_Y139_Q136P] | 0.848 | 0.418 | 0.656 | 1.17 | 0.601 | 0.532 | 1.12 | 0.474 | 0.725 | 1.08 | 1.18 | 0.529 | 1.27 | 0.514 | 0.748 | 0.482
11 | DGQFVYKLTDF [TBK1_Y153_S151F] | 0.859 | 0.481 | 0.773 | 1.06 | 0.739 | 2.32 | 1.01 | 0.366 | 0.649 | 0.587 | 0.799 | 0.832 | 0.467 | 0.498 | 0.482 | 2.44
12 | DILASYLDKVR [KRT12_Y139_R135I] | 0.952 | 0.656 | 0.824 | 0.54 | 0.284 | 0.375 | 0.96 | 0.364 | 0.594 | 0.437 | 0.505 | 0.403 | 0.364 | 0.407 | 0.37 | 0.457
13 | DIMDLYNQPEL [IL36A_Y96_P101L] | 0.764 | 0.556 | 0.768 | 1.54 | 0.589 | 0.99 | 1.28 | 0.511 | 0.943 | 0.613 | 1.11 | 1.29 | 0.559 | 0.567 | 0.868 | 0.932
14 | DIRAQYDELAQ [KRT18_Y256_R261Q] | 0.633 | 7.43 | 0.687 | 1.08 | 0.45 | 0.473 | 1.06 | 0.582 | 0.753 | 0.574 | 0.864 | 0.574 | 0.546 | 0.49 | 0.614 | 0.576
15 | DISEPYKVFRI [IRF8_Y107_YF] | 0.826 | 0.42 | 0.497 | 1.11 | 0.565 | 0.628 | 1.17 | 0.582 | 0.618 | 0.529 | 0.78 | 0.563 | 0.543 | 0.552 | 1 | 0.628
16 | DKHGQYLIGHG [EPHB4_Y581] | 0.905 | 0.485 | 0.565 | 0.652 | 0.465 | 0.436 | 0.645 | 0.378 | 0.576 | 0.376 | 0.599 | 0.475 | 0.397 | 0.482 | 0.525 | 0.449
